In patent publication US20050266528A1:

Target: von Willebrand factor (vWF) (UniProt P04275)
Experiment: affinity chromatography, peptide immobilised, linear 0-2 mol/l NaCl gradient, vWF antigen ELISA of fractions

Sequence of UniProt P04275 (P04275 764-2813): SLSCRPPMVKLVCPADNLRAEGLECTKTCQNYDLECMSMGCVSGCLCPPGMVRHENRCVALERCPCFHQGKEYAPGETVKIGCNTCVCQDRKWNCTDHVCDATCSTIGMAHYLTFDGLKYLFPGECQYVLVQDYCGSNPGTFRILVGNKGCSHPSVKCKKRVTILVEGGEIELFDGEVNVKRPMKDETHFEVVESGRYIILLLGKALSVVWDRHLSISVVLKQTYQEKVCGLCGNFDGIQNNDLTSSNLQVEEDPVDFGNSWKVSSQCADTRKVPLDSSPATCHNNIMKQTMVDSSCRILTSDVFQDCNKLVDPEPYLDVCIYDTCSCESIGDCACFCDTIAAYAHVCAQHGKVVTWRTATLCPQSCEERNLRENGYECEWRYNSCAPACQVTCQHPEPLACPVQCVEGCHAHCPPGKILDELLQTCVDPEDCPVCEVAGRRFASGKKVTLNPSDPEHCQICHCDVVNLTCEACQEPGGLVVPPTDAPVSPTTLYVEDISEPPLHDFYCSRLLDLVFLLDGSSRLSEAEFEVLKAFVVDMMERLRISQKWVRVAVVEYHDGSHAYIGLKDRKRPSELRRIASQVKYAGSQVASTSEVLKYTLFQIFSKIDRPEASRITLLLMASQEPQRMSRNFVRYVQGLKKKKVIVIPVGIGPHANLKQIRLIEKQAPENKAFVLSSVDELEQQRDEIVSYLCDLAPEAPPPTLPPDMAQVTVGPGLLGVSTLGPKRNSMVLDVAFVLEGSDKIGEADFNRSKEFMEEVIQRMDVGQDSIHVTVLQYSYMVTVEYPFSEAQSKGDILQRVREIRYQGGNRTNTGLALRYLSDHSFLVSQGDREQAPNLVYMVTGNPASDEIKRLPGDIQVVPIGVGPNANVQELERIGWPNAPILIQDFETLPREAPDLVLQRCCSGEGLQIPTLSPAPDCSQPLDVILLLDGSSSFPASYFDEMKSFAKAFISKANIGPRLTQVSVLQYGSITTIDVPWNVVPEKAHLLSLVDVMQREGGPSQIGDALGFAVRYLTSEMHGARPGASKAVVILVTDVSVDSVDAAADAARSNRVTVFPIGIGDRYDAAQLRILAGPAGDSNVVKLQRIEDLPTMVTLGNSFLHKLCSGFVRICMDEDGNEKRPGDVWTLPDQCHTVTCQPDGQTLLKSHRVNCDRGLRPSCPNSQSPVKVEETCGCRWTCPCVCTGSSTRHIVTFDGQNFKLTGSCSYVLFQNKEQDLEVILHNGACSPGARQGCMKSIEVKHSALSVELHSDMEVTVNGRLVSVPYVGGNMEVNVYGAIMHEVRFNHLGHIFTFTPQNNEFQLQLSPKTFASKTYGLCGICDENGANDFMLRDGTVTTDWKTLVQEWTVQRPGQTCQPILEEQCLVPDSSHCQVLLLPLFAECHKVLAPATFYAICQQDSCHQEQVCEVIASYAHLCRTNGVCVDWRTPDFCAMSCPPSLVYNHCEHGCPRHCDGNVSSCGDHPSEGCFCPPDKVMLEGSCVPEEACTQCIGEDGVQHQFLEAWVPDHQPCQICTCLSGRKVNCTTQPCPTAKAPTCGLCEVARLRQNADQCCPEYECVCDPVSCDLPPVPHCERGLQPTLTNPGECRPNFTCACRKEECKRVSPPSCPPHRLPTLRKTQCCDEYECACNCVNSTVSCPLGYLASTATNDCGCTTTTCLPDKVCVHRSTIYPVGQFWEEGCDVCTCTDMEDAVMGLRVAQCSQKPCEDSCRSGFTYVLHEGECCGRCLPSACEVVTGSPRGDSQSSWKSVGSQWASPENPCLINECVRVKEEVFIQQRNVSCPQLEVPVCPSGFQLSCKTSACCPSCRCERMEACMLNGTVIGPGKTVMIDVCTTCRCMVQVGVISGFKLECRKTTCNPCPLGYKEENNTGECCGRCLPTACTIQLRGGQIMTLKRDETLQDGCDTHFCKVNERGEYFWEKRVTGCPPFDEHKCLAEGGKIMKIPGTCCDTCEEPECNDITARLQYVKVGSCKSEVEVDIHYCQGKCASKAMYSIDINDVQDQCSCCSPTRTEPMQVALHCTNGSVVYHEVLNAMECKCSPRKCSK

Binder: AAGGILHLELLV [peptide with the sequence …]
- NaCl concentration at which vWF elutes from the peptide: 100 mmol/L
